# Assay results published in patent US20160108107A1 (INSTITUT NATIONAL DE LA RECHERCHE AGRONOMIQUE INRA, published 2016).
# B1: PEE 14C7 monoclonal antibody (antibody, IgG1, V domains shown)
# VH: DVQLQESGPDLVKPSQSLSLTCTVTGYSITSGYSWHWIRQFPGNKLEWMGYIHYSGSTNYNPSLKSRISITRDTSKNQFFLQLNSVTTEDTATYYCASGYFDVWGAGTTVTVSS
# VL: DVVMTQTPLSLPVSLGDQASISCRSSQSLVHSNGNTYLHWYLQKPGQSPKLLIYKVSNRFSGVPDRFSGSGSGTDFTLKISRVEAEDLGVYFCSQSTLVPWTFGGGTKLEIK
# notes: Used in the assays as hybridoma culture supernatant; also called PEE 14C7 antibody; monoclonal antibody produced by the PEE 14C7 hybridoma
# Experiments:
# Test in all cases: indirect ELISA, protein coated, culture supernatant at 1/50
# [1] = biological target: T1, deamidated ω-2 gliadin
# T1 construct: also called ω2-D; deam. ω2
# Procedure: (§1) 100 μl of proteins at 1 μg/ml in 50 mM carbonate buffer, pH 9.6, are incubated overnight at 4° C. at the bottom of a 96-well, bottom, plate (Nunc, Maxisorb). After 3 washes with PBS-0.05% Tween 20, an incubation with PBS-2% (w/v) milk is carried out. The PEE 14C7 monoclonal antibody (100 μl of various dilutions of antibody in PBS-0.1% (w/v) milk) is incubated for 1 h at ambient temperature. After washes with PBS-0.05% Tween 20, 100 μl of the peroxidase-coupled goat anti-mouse IgG secondary antibody (ref: 170-6516, Bio-Rad) diluted to 1/3000 is incubated for 1 h at ambient temperature under the same conditions as the primary antibody. After 3 washes, the OPD (0-phenylenediamine, ref: P-1526, Sigma) substrate is incubated for 30 min in the dark. The reaction is stopped by adding 50 μl of H2SO₄ 4N. The optical densities are read at dual wavelength (490 nm for measuring the hydrolysis of the substrate and 630 nm for eliminating the background noise) on a plate spectrometer (Bioteck, E1x808-1).
# (§2) The percentages of reactivity of the antibody with respect to each protein are determined as described in Tranquet et al. (2012). In the present case, the percentages are determined at the 1/50 dilution of the culture supernatant (i.e. the strongest dilution which makes it possible to obtain the strongest absorbence on the best-recognized protein—deamidated gamma-gliadins). The percentage recognition of a protein X is obtained by calculating the Protein X absorbence/deamidated gamma-gliadin absorbence ratio.
# [2] = biological target: T2, deamidated ω-5 gliadin
# T2 construct: also called ω5-D; deam. ω5
# Procedure: as §1, §2
# [3] = biological target: T3, deamidated low-molecular weight glutenin
# T3 construct: also called Glut; LMW-D; deam; LMW
# Procedure: as §1, §2
# [4] = biological target: T4, native α-gliadin
# T4 construct: also called non-deamidated α-gliadin
# Procedure: as §1, §2
# [5] = biological target: T5, native β-gliadin
# T5 construct: also called non-deamidated β-gliadin
# Procedure: as §1, §2
# [6] = biological target: T6, native γ-gliadin
# T6 construct: also called non-deamidated γ-gliadin
# Procedure: as §1, §2
# [7] = biological target: T7, native ω-2 gliadin
# T7 construct: also called non-deamidated ω-2 gliadin
# Procedure: as §1, §2
# [8] = biological target: non-deamidated native ω-5 gliadin
# Procedure: as §1, §2
# [9] = biological target: T8, native high-molecular-weight glutenin
# T8 construct: also called HMW
# Procedure: as §1, §2
# [10] = biological target: T9, native low-molecular-weight glutenin
# T9 construct: also called LMW
# Procedure: as §1, §2
# [11] = biological target: T10, deamidated α-gliadin
# T10 construct: also called α-D; deam. α
# Procedure: as §1, §2
binder,measurement,setting,value
B1,percentage of reactivity (Protein X absorbence/deamidated gamma-gliadin absorbence),[1],94%
same,percentage of reactivity (Protein X absorbence/deamidated gamma-gliadin absorbence),[2],99%
same,percentage of reactivity (Protein X absorbence/deamidated gamma-gliadin absorbence),[3],97%
same,percentage of reactivity (Protein X absorbence/deamidated gamma-gliadin absorbence),[4],1%
same,percentage of reactivity (Protein X absorbence/deamidated gamma-gliadin absorbence),[5],4%
same,percentage of reactivity (Protein X absorbence/deamidated gamma-gliadin absorbence),[6],1%
same,percentage of reactivity (Protein X absorbence/deamidated gamma-gliadin absorbence),[7],39%
same,percentage of reactivity (Protein X absorbence/deamidated gamma-gliadin absorbence),[8],7%
same,percentage of reactivity (Protein X absorbence/deamidated gamma-gliadin absorbence),[9],2%
same,percentage of reactivity (Protein X absorbence/deamidated gamma-gliadin absorbence),[10],26%
same,percentage of reactivity (Protein X absorbence/deamidated gamma-gliadin absorbence),[11],76%
